The series addresses T1, hnRNP H1 (recombinant) (UniProt P31943 1-449).
T1 sequence: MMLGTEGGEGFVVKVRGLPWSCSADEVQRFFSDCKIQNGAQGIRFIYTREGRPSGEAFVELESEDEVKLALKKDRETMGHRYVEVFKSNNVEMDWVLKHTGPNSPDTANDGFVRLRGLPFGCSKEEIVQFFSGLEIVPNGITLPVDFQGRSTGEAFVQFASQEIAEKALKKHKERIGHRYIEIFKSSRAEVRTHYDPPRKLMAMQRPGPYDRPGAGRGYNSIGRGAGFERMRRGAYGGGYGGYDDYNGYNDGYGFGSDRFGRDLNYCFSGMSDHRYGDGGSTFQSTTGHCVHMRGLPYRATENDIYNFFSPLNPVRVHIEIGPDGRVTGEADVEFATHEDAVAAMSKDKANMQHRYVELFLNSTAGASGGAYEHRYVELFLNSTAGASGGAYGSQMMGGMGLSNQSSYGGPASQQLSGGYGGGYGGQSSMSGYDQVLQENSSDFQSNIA
The series is described as follows: EMSA; 30 nM tRNA; EMSA: 50 mM Tris pH 8, 50 mM NaCl, 2 mM EDTA, 0.5% BSA, 0.2% CHAPS, 0.3 nM RNA, 30 nM tRNA, 0-640 nM H1, 30 min 37 C, native 6% PAGE. UV crosslinking: ~1 nM RNA in U87 nuclear extract. As to conditions: protein: recombinant, (pRSET-C vector, Ni-NTA), label: 32P.

B1: 4R-7dG (ssRNA)
RNA: GGGGCCGGGGCCGGGGCCGGGGCC
modifications: all G replaced by 7-deaza-G (transcribed with 7-deaza-GTP)
With B1, the Kd (G-quadruplex destabilized) came to 13.5 ± 3 nM.

B2: 4R (structured_RNA)
RNA: GGGGCCGGGGCCGGGGCCGGGGCC
B2: the Kd (G-quadruplex, can be intramolecular) amounted to 75.5 ± 14 nM.

The record behind these values is PMC5050020, “The C9ORF72 GGGGCC expansion forms RNA G-quadruplex inclusions and sequesters hnRNP H to disrupt splicing in ALS brains”.
